Patent US7514534 (DYAX, dated 2009)

T1: MMP-26 catalytic domain, tagged with hexa-histidine (human, UniProt Q9NRE1 90-261)
T1 construct: the forward primer adds Met-Ala before it; also called MMP-26 target protein; Matrilysin-2; not shown: Also any N-terminal residues added by the forward primer (Met-Ala according to our card; the primers were not visible to me)
T1 sequence: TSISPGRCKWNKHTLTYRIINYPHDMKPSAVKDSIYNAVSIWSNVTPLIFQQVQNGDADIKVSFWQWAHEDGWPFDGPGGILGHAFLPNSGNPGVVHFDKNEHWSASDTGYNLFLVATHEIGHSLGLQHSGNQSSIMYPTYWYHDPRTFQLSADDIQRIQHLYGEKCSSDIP

B1: C07 (antibody, human IgG4, V domains shown)
VH: EVQLLESGGGLVQPGGSLRLSCAASGFTFSYYVMMWVRQAPGKGLEWVSVIRPSGGITTYADSVKGRFTISRDNSKNTLYLQTNSLRAEDTAVYYCAKIDYGGNSFYFDYWGQGTLVTVSS
VL: DIQMTQSPSSLSASVGDRVTITCRASQSISNYLNWYQQRPGKAPKLLIYAASSLERGVPSRFSGSGSGTDFTLTISSLQSEDFATYYCQQSYSPPPLTFGGGTKLEIKR
notes: whole human IgG4
B2: C04 (antibody, human IgG4, V domains shown)
VH: EVQLLESGGGLVQPGGSLRLSCAASGFTFSMYFMVWVRQAPGKGLEWVSWIGSSGGETPYADSVKGRFTISRDNSKNTLYLQMNSLRAEDTAVYYCARGYSSGWYVMGDYWGQGTLVTVSS
VL: QSALTQPPSASGTPGQRVTISCSGTSSNIGSHYVFWYQQLPGTAPKLLIHRNDERPSGVPDRFSGSKSGTSASLAISGLQSEDEADYYCATWDDNLNGPVFGGGTKLT
notes: whole human IgG4
B3: C03 (antibody, human IgG4, V domains shown)
VH: EVQLLESGGGLVQPGGSLRLSCAASGFTFSLYMMKWVRQAPGKGLEWVSVISSSGGYTQYADSVKGRFTISRDNSKNTLYLQMNNLRAEDTAVYYCARGWDVWGKGTTVTVSS
VL: QSALTQPPSASGTPGQRVTISCSGSNSNIGGNIVIWLQQLPGTAPKLMIYDVSDRPSGVPDRFSGSKSGTSASLAISGLQSEDEADYYCAAWDDSLNGWVFGGGTKLTVLS
notes: whole human IgG4
B4: B11 (antibody, human IgG4, V domains shown)
VH: EVQLLESGGGLVQPGGSLRLSCAASGFTFSPYFMFWVRQAPGKGLEWVSSIGSSGGDTSYADSVKGRFTISRDNSZNTLYLQMNSLRAEDTAVYYCARGLYRWGQGTLVTVSS
VL: QSELTQPPSVSLAPGQTARITCGGNNIGTKSVHWYQQKPGQAPVLVVYDDSDRPSGIPERFSGSNSGNTATLTISRVEAGDEADYYCQVWDSGSDHQVFGGGTKLTVLG
notes: whole human IgG4; the VHC entry has one unread residue (printed z, K75z)
B5: C06 (antibody, human IgG4, V domains shown)
VH: EVQLLESGGGLVQPGGSLRLSCAASGFTFSFYFMFWVRQAPGKGLEWVSYIGPSGGPTNYADSVKGRFTISRDNSKNTLYLQMNSLRAEDTAVYYCARHYPREYQLPGSFDPWGQGTLVTVSS
VL: DIQMTQSPSSLSASVGDRVTITCRASQGISNYLAWYQQKPGKVPKLLIYPASTLQSGVPSRFSGSGSGTDFTLTISSLQPEDFATYYCQQADSFPPTFGGGTTVEIRR
notes: whole human IgG4
B6: C01 (antibody, human IgG4, V domains shown)
VH: EVQLLESGGGLVQPGGSLRLSCAASGFTFSNYGMSWVRQAPGKGLEWVSVIGPSGGITMYADSVKGRFTISRDNSKNTLYLQMNSLRAEDTAVYYCATGSSSGWYPNFDYWGQGTLVTVSS
VL: DIQMTQSPSTLSASVGDRVTITCRASQSIGNWLAWYQQKPGEAPHLLIYQASSLEGGVPSRFSGSGSGTKFTLNISSLQPDDFATYYCQQYNSYSYTFGQGTKLDIKR
notes: whole human IgG4
B7: B12 (antibody, human IgG4, V domains shown)
VH: EVQLLESGGGLVQPGGSLRLSCAASGFTFSLYVMYWVRQAPGKGLEWVSYISSSGGITHYADSVKGRFTISRDNSKNTLYLQMNSLRAEDTAVYYCARGSIVVVPAAIRSNNWFDPWGQGTLVTVSS
VL: QSALTQPPSVSVAPGQTARISCGGDNIDTKNVQWYQQRPGQAPVLVVYDNSDRPSAIPERFSGSNSGTTATLTISRVEAGDEADYYCQVFDGRSDHPVFGGGTKLTV
notes: whole human IgG4
B8: A03 (antibody, human IgG4, V domains shown)
VH: EVQLLESGGGLVQPGGSLRLSCAASGFTFSIYSMDWVRQAPGKGLEWVSSIYSSGGATRYADSVKGRFTISRDNSKNTLYLQMNSLRAEDTAVYYCARCSWLQLVPMHPWGQGTLVTVSS
VL: QSALTQPPSASGTPGQRVTISCSGGSSNIGSNFVYWYRQLPGTAPKLLIYRNYQRPSGVPDRFSGSKSGTSASLAISGLLSEDEADYYCAAWDDNVGGVFGSGTKVTVLG
notes: whole human IgG4
B9: C10 (antibody, human IgG4, V domains shown)
VH: EVQLLESGGGLVQPGGSLRLSCAASGFTFSVYVMMWVRQAPGKGLEWVSGIVPSGGKTHYADSVKGRFTISRDNSKNTLYLQMNSLRAEDTAVYYCARPDYGGNSRPLEYWGQGTLVTVSS
VL: QSELTQPASVSGSPGQSITISCTGTSSDVGSYNLVSWYQQHPGKAPKLMIYEGSKRPSGVSNRFSGSKSGNTASLTISGLQAEDEADYYCCSYAGSSTYVFGTGTKVTVLG
notes: whole human IgG4
B10: C05 (antibody, human IgG4, V domains shown)
VH: EVQLLESGGGLVQPGGSLRLSCAASGFTFSSYQMDWVRQAPGKGLEWVSRIVPSGGDTTYADSVKGRFTISRDNSKNTLYLQMNSLRAEDTAVYYCARHVYYDSSDYFPNPFDYWGQGTLVTVSS
VL: QSELTQPPSVSGTPGQRVTISCSGSSSNIGSEYVYWFQQLPGTAPRLLIYRNDQRPSGVPDRFSGSKSGTSASLAISGLRSEDETDYYCTTWDDSLSGPVFGGGTKLTVLG
notes: whole human IgG4
B11: C09 (antibody, human IgG4, V domains shown)
VH: EVQLLESGGGLVQPGGSLRLSCAASGFTFSQYFMNWVRQAPGKGLEWVSYISGGRTPYADSVKGRFTISRDNSKNTLYLQMNSLRAEDTAVYYCAILLGPSSSNHPFLGPWGQGTLVTVSS
VL: DIQMTQSPGTLSLSPGERATLSCRASQSVSSTYLAWYQQKPGQAPRLLISGASSRATGIPDRFSGSGSGTDFTLTISRLEPEDFAVYYCQQYGSSPYTFGQGTKLEIKR
notes: whole human IgG4
B12: C08 (antibody, human IgG4, V domains shown)
VH: EVQLLESGGGLVQPGGSLRLSCAASGFTFSYYEMMWVRQAPGKGLEWVSSISPSGGPTMYADSVKGRFTISRDNSKNTLYLQMNSLRAEDTGVYYCARKMGRVGYCSSTSCYRDDYYGMDVWGQGTTVTVSS
VL: DIQMTQSPPSLSALVGDRVTITCRASQSISRYVNWYQQKPGKAPKVLIYAASIVENGVPSRFSGSGSGTDFSLTISSLQPEDFATYYCQQTYSTPLTFGGGTKLAIKR
notes: whole human IgG4

target: T1, MMP-26 catalytic domain, tagged with …; assay: bead-based ELISA, MMP-26 on nickel beads, IgG4 culture supernatant
Description: Reformatted and expressed full-length MMP-26 binding IgG4 antibodies were tested for specificity in a bead-based ELISA. Approximately 1.25 μg of MMP-26 protein was bound to nickel-coated magnetic beads (Novagen) which had been pre-blocked with phosphate buffered saline containing 5% (w/v) nonfat dry milk and 0.05% (v/v) Tween-20. The beads were washed in phosphate buffered saline containing 0.05% (v/v) Tween-20 (PBS-T) and 100 uls of unpurified cell culture supernatant containing transiently produced MMP-26-binding antibodies was added and incubated on a rotator for sixty minutes. The beads were washed with PBS-T and MMP-26-binding antibodies were detected with an HRP-conjugated anti-human secondary antibody. Data is expressed in fold over background where background consists of beads, blocking agent, and culture supernatant containing target antibody (Table 2; in this table, Results shown as fold over background (F>B) where background consists of beads, blocking agent, and culture supernatant).

F > B (fold over background) | Binder
3.12 | B1
2.9 | B2
4.1 | B3
3.13 | B4
2.2 | B5
2.8 | B6
2.83 | B7
3.54 | B8
3.41 | B9
3.6 | B10
3.4 | B11
3.4 | B12

target: T2, MMP-9 (UniProt P14780 107-707, limits assumed); assay: cross-reactivity ELISA on coated MMP
T2 construct: also called gelatinase
Description: (§1) Twenty-one of the reformatted MMP-26 antibodies were tested for MMP cross reactivity by ELISA analysis. MMP-3, MMP-7, MMP-9, and MMP-12 were coated onto Immulon 2 HB 96-well plates at a concentration of 1 μg/ml for 1 hour at 37° C. The plates were blocked with PBS-T containing 5% (w/v) nonfat dry milk for thirty minutes and subsequently washed with PBS-T. Each antibody was tested for reactivity to all of the above mentioned MMPs at a concentration of 2 μg/ml with an incubation time of 1 hour. Bound antibody was detected with an HRP-conjugated anti-human secondary antibody (Table 3, NT=not tested.).

T2 sequence (P14780 107-707 limits assumed): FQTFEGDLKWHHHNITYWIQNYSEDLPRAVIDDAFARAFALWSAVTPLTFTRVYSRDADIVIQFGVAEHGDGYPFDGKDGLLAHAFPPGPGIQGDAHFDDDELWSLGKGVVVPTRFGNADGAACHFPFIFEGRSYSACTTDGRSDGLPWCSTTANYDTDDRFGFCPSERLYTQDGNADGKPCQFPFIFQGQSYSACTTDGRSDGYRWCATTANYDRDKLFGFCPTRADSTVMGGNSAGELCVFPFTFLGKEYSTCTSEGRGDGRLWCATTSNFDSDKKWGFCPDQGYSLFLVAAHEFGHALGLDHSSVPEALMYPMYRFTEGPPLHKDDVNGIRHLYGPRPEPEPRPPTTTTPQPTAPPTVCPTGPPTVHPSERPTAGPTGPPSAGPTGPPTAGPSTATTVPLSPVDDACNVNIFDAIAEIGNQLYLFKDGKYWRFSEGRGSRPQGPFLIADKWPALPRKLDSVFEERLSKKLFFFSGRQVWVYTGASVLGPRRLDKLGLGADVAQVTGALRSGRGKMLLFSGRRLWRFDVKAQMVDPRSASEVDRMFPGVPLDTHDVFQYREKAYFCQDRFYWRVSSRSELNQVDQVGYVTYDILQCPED

binding result | Binder
no binding (tested: 2 µg/ml) | B1
no binding (tested: 2 µg/ml) | B2
no binding (tested: 2 µg/ml) | B3
no binding (tested: 2 µg/ml) | B4
no binding (tested: 2 µg/ml) | B5
no binding (tested: 2 µg/ml) | B6
no binding (tested: 2 µg/ml) | B7
no binding (tested: 2 µg/ml) | B8
no binding (tested: 2 µg/ml) | B9
no binding (tested: 2 µg/ml) | B10
no binding (tested: 2 µg/ml) | B11
no binding (tested: 2 µg/ml) | B12

target: T3, MMP-3 (UniProt P08254 100-477, limits assumed); assay: cross-reactivity ELISA on coated MMP
T3 construct: also called stromelysin-1
Description: as §1

T3 sequence (P08254 100-477 limits assumed): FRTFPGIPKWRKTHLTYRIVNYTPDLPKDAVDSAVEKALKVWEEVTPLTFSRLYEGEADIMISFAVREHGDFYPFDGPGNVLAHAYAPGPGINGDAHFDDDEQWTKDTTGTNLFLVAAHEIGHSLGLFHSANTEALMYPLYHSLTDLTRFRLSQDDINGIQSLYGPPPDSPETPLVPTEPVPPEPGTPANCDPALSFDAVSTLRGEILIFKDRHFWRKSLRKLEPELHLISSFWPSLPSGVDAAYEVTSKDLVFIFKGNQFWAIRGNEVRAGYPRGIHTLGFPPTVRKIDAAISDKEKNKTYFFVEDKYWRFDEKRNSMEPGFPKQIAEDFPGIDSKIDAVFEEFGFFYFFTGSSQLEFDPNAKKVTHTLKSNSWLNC

binding result | Binder
no binding (tested: 2 µg/ml) | B1
no binding (tested: 2 µg/ml) | B2
no binding (tested: 2 µg/ml) | B3
no binding (tested: 2 µg/ml) | B4
no binding (tested: 2 µg/ml) | B5
no binding (tested: 2 µg/ml) | B6
no binding (tested: 2 µg/ml) | B7
no binding (tested: 2 µg/ml) | B8
no binding (tested: 2 µg/ml) | B9
no binding (tested: 2 µg/ml) | B10
no binding (tested: 2 µg/ml) | B11
no binding (tested: 2 µg/ml) | B12
